Assays:
[1] = target: T1, fluorescent dye-labeled human CD5 protein (human, UniProt P06127 25-371, limits assumed, fluorescent dye label (dye and sites not stated)); experiment: flow cytometry: CT125A cells with graded fluorescent human CD5 protein, percent labelled CAR+ cells fitted; 3rd time
T1 construct: also called human CD5 antigen
T1 sequence (looked up): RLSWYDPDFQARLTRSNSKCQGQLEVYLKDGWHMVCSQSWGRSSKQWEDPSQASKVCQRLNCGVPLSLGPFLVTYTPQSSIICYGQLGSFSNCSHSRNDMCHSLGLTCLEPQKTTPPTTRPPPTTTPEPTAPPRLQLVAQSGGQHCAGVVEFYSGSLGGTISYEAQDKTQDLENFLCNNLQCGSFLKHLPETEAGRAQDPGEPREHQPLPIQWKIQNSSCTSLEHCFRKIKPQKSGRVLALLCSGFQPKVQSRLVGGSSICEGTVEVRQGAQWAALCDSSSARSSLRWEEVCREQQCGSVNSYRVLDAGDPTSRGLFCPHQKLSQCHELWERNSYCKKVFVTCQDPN
Excerpt: (§1) The relationship between the percentage of the fluorescence-labeled CAR+positive cells and the concentration of CD5 protein was fitted by Graphpad Prism software to calculate the affinity EC50 constant. This experiment was completed by Shanghai IASO Biotherapeutics Co., Ltd., and a total of three independent experiments were repeated.

[2] = target: T1, fluorescent dye-labeled human CD5 …; experiment: flow cytometry: CT125A cells with graded fluorescent human CD5 protein; average of three experiments
Excerpt: as §1

[3] = target: T2, human CD5 expressed on cells (human, UniProt P06127 25-495); experiment: cell-based or functional assay
T2 sequence (looked up): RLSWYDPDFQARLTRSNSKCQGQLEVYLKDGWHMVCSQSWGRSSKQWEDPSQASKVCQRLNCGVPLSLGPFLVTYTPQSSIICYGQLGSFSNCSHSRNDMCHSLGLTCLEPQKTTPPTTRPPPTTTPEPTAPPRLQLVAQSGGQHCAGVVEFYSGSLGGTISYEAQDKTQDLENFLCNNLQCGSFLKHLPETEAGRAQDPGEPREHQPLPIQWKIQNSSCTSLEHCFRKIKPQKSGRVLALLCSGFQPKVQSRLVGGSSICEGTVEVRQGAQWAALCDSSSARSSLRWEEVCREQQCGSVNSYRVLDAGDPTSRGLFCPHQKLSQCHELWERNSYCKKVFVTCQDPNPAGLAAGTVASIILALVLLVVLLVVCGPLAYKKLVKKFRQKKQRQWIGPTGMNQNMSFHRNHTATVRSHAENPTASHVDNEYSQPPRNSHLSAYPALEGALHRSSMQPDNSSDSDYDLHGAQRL

[4] = target: T1, fluorescent dye-labeled human CD5 …; experiment: flow cytometry: CT125A cells with graded fluorescent human CD5 protein, percent labelled CAR+ cells fitted; 2nd time
Excerpt: as §1

[5] = target: T1, fluorescent dye-labeled human CD5 …; experiment: flow cytometry: CT125A cells with graded fluorescent human CD5 protein, percent labelled CAR+ cells fitted; 1st time
Excerpt: as §1

[6] = target: T3, CD5 antigen (Acro, CD5-H52H5) (UniProt P06127 25-371); experiment: BLI (Octet), IgG loaded on the biosensor, CD5 antigen 100 to 1.563 nM, 1:1 model
T3 construct: Bought protein
T3 sequence (looked up): T1 sequence (looked up)

[7] = target: T2, human CD5 expressed on cells; experiment: flow cytometry on MEC-1-CD5-Luc cells, percent positive cells fitted (called Kd in paragraph 233); 2nd time
Description: (§2) The relationship between the percentage of fluorescence-labeled positive CD5⁺ target cells and different concentrations of CD5 tandem single-domain antibody was analyzed by fitting using Graphpad Prism software to calculate the EC50 constant. A total of three independent repetitions were performed in this experiment.

[8] = target: T2, human CD5 expressed on cells; experiment: flow cytometry on JVM-2-Luc-CD5 cells, percent positive cells fitted (called Kd in paragraph 233); 3rd time
Description: as §2

[9] = target: T2, human CD5 expressed on cells; experiment: flow cytometry on CCRF-CEM-Luc cells, percent positive cells fitted (called Kd in paragraph 233); 3rd time
Description: as §2

[10] = target: T2, human CD5 expressed on cells; experiment: flow cytometry on JVM-2-Luc-CD5 cells, percent positive cells fitted (called Kd in paragraph 233); 2nd time
Description: as §2

[11] = target: T2, human CD5 expressed on cells; experiment: flow cytometry on SUP-T1-Luc cells (called Kd in paragraph 233); average of three experiments
Description: as §2

[12] = target: T2, human CD5 expressed on cells; experiment: flow cytometry on CCRF-CEM-Luc cells, percent positive cells fitted (called Kd in paragraph 233); 2nd time
Description: as §2

[13] = target: T2, human CD5 expressed on cells; experiment: flow cytometry on MEC-1-CD5-Luc cells (called Kd in paragraph 233); average of three experiments
Description: as §2

[14] = target: T2, human CD5 expressed on cells; experiment: flow cytometry on SUP-T1-Luc cells, percent positive cells fitted (called Kd in paragraph 233); 3rd time
Description: as §2

[15] = target: T2, human CD5 expressed on cells; experiment: flow cytometry on CCRF-CEM-Luc cells, percent positive cells fitted (called Kd in paragraph 233); 1st time
Description: as §2

[16] = target: T2, human CD5 expressed on cells; experiment: flow cytometry on JVM-2-Luc-CD5 cells (called Kd in paragraph 233); average of three experiments
Description: as §2

[17] = target: T2, human CD5 expressed on cells; experiment: flow cytometry on SUP-T1-Luc cells, percent positive cells fitted (called Kd in paragraph 233); 1st time
Description: as §2

[18] = target: T2, human CD5 expressed on cells; experiment: flow cytometry on SUP-T1-Luc cells, percent positive cells fitted (called Kd in paragraph 233); 2nd time
Description: as §2

[19] = target: T2, human CD5 expressed on cells; experiment: flow cytometry on CCRF-CEM-Luc cells (called Kd in paragraph 233); average of three experiments
Description: as §2

[20] = target: T2, human CD5 expressed on cells; experiment: flow cytometry on JVM-2-Luc-CD5 cells, percent positive cells fitted (called Kd in paragraph 233); 1st time
Description: as §2

[21] = target: T2, human CD5 expressed on cells; experiment: flow cytometry on MEC-1-CD5-Luc cells, percent positive cells fitted (called Kd in paragraph 233); 3rd time
Description: as §2

[22] = target: T2, human CD5 expressed on cells; experiment: flow cytometry on MEC-1-CD5-Luc cells, percent positive cells fitted (called Kd in paragraph 233); 1st time
Description: as §2

B1: FHVH3VH1 CAR (other)
chain: QVQLVQSGAEVKKPGSSVKVSCKASGGTFSNYAISWVRQAPGQGLEWMGWISAYNGDTKYAQRLQGRVTMTTDTSTSTAYMELRNLRSDDTAVYYCARYESMSGQDIWGQGTLVTVSSGGGGSGGGGSGGGGSEVQLLESGGGLVQPGGSLRLSCAASGFTFSHSAMGWVRQAPGKGLEWVSSIYARGGYTYYADSVKGRFTISRDNSKNTLYLQMNSLRAEDTAVYYCARGYHLEYMVSQDVWGQGTLVTVSSFVPVFLPAKPTTTPAPRPPTPAPTIASQPLSLRPEACRPAAGGAVHTRGLDFACDIYIWAPLAGTCGVLLLSLVITLYCNHRNKRGRKKLLYIFKQPFMRPVQTTQEEDGCSCRFPEEEEGGCELRVKFSRSADAPAYQQGQNQLYNELNLGRREEYDVLDKRRGRDPEMGGKPRRKNPQEGLYNELQKDKMAEAYSEIGMKGERRRGKGHDGLYQGLSTATKDTYDALHMQALPPR
notes: Signal peptide left out; T2A remnant at the C-terminus not written; also called CT125A; CT125A injection
**Q.** How did the EC50 [1] turn out when B1 was run?
**A.** The EC50 was 1.18 nM.

**Q.** And the EC50 [2]?
**A.** The EC50 was 2.07 nM.

**Q.** What about the “cytotoxicity on CCRF-CEM-Luc cells, effector-target ratio 1:1” value [3] of the same binder?
**A.** The value was 95.6%.

**Q.** And the “cytotoxicity on CCRF-CEM-Luc cells, effector-target ratio 2:1” value [3]?
**A.** Its value is 96.9%.

**Q.** What about the “cytotoxicity on JVM-2-Luc-CD5 cells, effector-to-target ratio 5:1” value [3] of the same binder?
**A.** The value was 96.4%.

**Q.** And the “cytotoxicity on JVM-2-Luc-CD5 cells, effector-to-target ratio 10:1” value [3]?
**A.** The value was 98.5%.

**Q.** And the “cytotoxicity on MEC-1-CD5-Luc cells, effector-to-target ratio 1:1” value [3]?
**A.** The value was 97.7%.

**Q.** What about the “cytotoxicity on MEC-1-CD5-Luc cells, effector-to-target ratio 2:1” value [3] of the same binder?
**A.** The value was 98.2%.

**Q.** What about the “cytotoxicity on SUP-T1-Luc cells, effector-target ratio 1:1” value [3] of the same binder?
**A.** Its value is 56.9%.

**Q.** What about the “cytotoxicity on SUP-T1-Luc cells, effector-target ratio 2:1” value [3] of the same binder?
**A.** Its value is 91%.

**Q.** And the EC50 [4]?
**A.** Its EC50 is 1.22 nM.

**Q.** What about the EC50 [5] of the same binder?
**A.** Its EC50 is 3.82 nM.

B2: FHVH1 (#42 IgG) (Fc fusion)
chain: EVQLLESGGGLVQPGGSLRLSCAASGFTFSHSAMGWVRQAPGKGLEWVSSIYARGGYTYYADSVKGRFTISRDNSKNTLYLQMNSLRAEDTAVYYCARGYHLEYMVSQDVWGQGTLVTVSS
notes: also called #42 clone; anti-CD5 IgG; not shown: human IgG4 Fc
**Q.** How did the Kd [6] turn out when B2 was run?
**A.** The Kd was 2.9 nM.

**Q.** What about the koff [6] of the same binder?
**A.** The koff was 0.000139 s⁻¹.

**Q.** And the kon [6]?
**A.** Its kon is 48000 M⁻¹ s⁻¹.

B3: FHVH3 (#61 IgG) (Fc fusion)
chain: QVQLVQSGAEVKKPGSSVKVSCKASGGTFSNYAISWVRQAPGQGLEWMGWISAYNGDTKYAQRLQGRVTMTTDTSTSTAYMELRNLRSDDTAVYYCARYESMSGQDIWGQGTLVTVSS
notes: also called #61 clone; anti-CD5 IgG; not shown: human IgG4 Fc
**Q.** How did the Kd [6] turn out when B3 was run?
**A.** Its Kd is 3.96 nM.

**Q.** What about the koff [6] of the same binder?
**A.** The koff was 0.000288 s⁻¹.

**Q.** What about the kon [6] of the same binder?
**A.** The kon was 72800 M⁻¹ s⁻¹.

B4: FHVH3VH1 (#61-42 IgG) (Fc fusion)
chain: QVQLVQSGAEVKKPGSSVKVSCKASGGTFSNYAISWVRQAPGQGLEWMGWISAYNGDTKYAQRLQGRVTMTTDTSTSTAYMELRNLRSDDTAVYYCARYESMSGQDIWGQGTLVTVSSGGGGSGGGGSGGGGSEVQLLESGGGLVQPGGSLRLSCAASGFTFSHSAMGWVRQAPGKGLEWVSSIYARGGYTYYADSVKGRFTISRDNSKNTLYLQMNSLRAEDTAVYYCARGYHLEYMVSQDVWGQGTLVTVSS
notes: also called anti-CD5 IgG; not shown: human IgG4 Fc
**Q.** B4 was tested. Which Kd [6] did it give?
**A.** Its Kd is 1.67 nM.

**Q.** And the koff [6]?
**A.** The koff was 0.000189 s⁻¹.

**Q.** And the kon [6]?
**A.** The kon was 113000 M⁻¹ s⁻¹.

B5: FHVH4 (#62 IgG) (Fc fusion)
chain: QVQLVQSGAEVKKPGESLRISCKASGYSFSNHWIGWVRQKPGKGLEWMGSVYPGDSDTRYSPSFQGHVTVSADKSMNTAYLQWSSLKTSDTAMYYCARGGTIDGDYGGRQDFWGQGTMVTVSS
notes: as for B4
**Q.** What does the source list for B5?
**A.** Kd [6]: 27.4 nM; koff [6]: 0.000309 s⁻¹; kon [6]: 12500 M⁻¹ s⁻¹

B6: FHVH2 (#60 IgG) (Fc fusion)
chain: QVQLVESGGGLVQPGGSLRLSCAASGFTFSSYEMNWVRQAPGKGLEWVSYISSSGSTIYYADSVKGRFTISRDNAKNSLYLQMNSLRAEDTAVYYCARVAQREGDVWGKGTTVTVSS
notes: as for B4
**Q.** For B6, which Kd [6] is on record?
**A.** Its Kd is 8.32 nM.

**Q.** And the koff [6]?
**A.** Its koff is 0.000212 s⁻¹.

**Q.** What about the kon [6] of the same binder?
**A.** Its kon is 25500 M⁻¹ s⁻¹.

B7: CT125A tandem single-domain antibody rabbit FC fusion protein RD125 61-42 rFc (Fc fusion)
chain: B4 chain
notes: also called CD5 tandem single-domain antibody rabbit Fc fusion protein; not shown: rabbit Fc
**Q.** B7 was tested. Which EC50 [7] did it give?
**A.** Its EC50 is 0.92 nM.

**Q.** And the EC50 [8]?
**A.** The EC50 was 0.72 nM.

**Q.** What about the EC50 [9] of the same binder?
**A.** The EC50 was 3.39 nM.

**Q.** And the EC50 [10]?
**A.** Its EC50 is 0.56 nM.

**Q.** What about the EC50 [11] of the same binder?
**A.** The EC50 was 4.02 nM.

**Q.** And the EC50 [12]?
**A.** Its EC50 is 2.54 nM.

**Q.** What about the EC50 [13] of the same binder?
**A.** The EC50 was 1.14 nM.

**Q.** What about the EC50 [14] of the same binder?
**A.** The EC50 was 4.75 nM.

**Q.** And the EC50 [15]?
**A.** The EC50 was 3.04 nM.

**Q.** And the EC50 [16]?
**A.** Its EC50 is 0.64 nM.

**Q.** What about the EC50 [17] of the same binder?
**A.** Its EC50 is 2.72 nM.

**Q.** And the EC50 [18]?
**A.** Its EC50 is 4.58 nM.

**Q.** What about the EC50 [19] of the same binder?
**A.** Its EC50 is 2.99 nM.

**Q.** What about the EC50 [20] of the same binder?
**A.** The EC50 was 0.64 nM.

**Q.** What about the EC50 [21] of the same binder?
**A.** The EC50 was 1.2 nM.

**Q.** What about the EC50 [22] of the same binder?
**A.** Its EC50 is 1.3 nM.
